To fix the notation:
B4: PRDC with the unpaired cysteine mutated to serine (C120S), bacterially produced (natural protein, mouse, UniProt O88273 22-168, looked up)
chain: RKNRPAGAIPSPYKDGSSNNSERWHHQIKEVLASSQEALVVTERKYLKSDWCKTQPLRQTVSEEGCRSRTILNRFCYGQCNSFYIPRHVKKEEDSFQSSAFCKPQRVTSVIVELECPGLDPPFRIKKIQKVKHCRCMSVNLSDSDKQ

The data set “cross-linking” deals with the molecule itself. Put plainly: cross-linking.
Data set [1] concerns the molecule itself. Put plainly: MALDI-TOF mass spectrometry.
The data set “SEC” deals with the molecule itself. Put plainly: SEC. A general note: In gel filtration, larger molecules generally elute earlier.
The data set “AUC” concerns the molecule itself. Kind of data set: AUC.
Data set [2] addresses B4. Put plainly: SPR. A general note: SPR reads the build-up and loss of mass on a sensor chip optically.

B1: DAN (differential screening selected gene abberative in neuroblastoma) (natural protein, human)
chain: AAPPPINKLALFPDKSAWCEAKNITQIVGHSGCEAKSIQNRACLGQCFSYSVPNTFPQSTESLVHCDSCMPAQSMWEIVTLECPGHEEVPRVDKLVEKILHCSCQACGKEPSHEGLSVYVQGEDGPGSQPGTHPHPHPHPHPGGQTPEPEDPPGAPHTEEEGAEDLEVLFQ
Consider B1, for which the stoichiometry N (in general, a count of units in the complex or per binding partner) in the data set “cross-linking” stood at 2.

B2: activin A (ligand, UniProt P08476 311-426, looked up)
chain: GLECDGKVNICCKKQFFVSFKDIGWNDWIIAPSGYHANYCEGECPSHIAGTSGSSLSFHSTVINHYRMRGHSPFANLKSCCVPTKLRPMSMLYYDDGQNIIKKDIQNMIVEECGCS
For the molecule B2, the “stoichiometry N” value in data set [1] turned out to be 2.

B3: Protein related to DAN and Cerberus (PRDC), wild type, bacterially produced (natural protein, mouse, UniProt O88273 22-168, looked up)
chain: RKNRPAGAIPSPYKDGSSNNSERWHHQIKEVLASSQEALVVTERKYLKSDWCKTQPLRQTVSEEGCRSRTILNRFCYGQCNSFYIPRHVKKEEDSFQSCAFCKPQRVTSVIVELECPGLDPPFRIKKIQKVKHCRCMSVNLSDSDKQ
modifications: a single glutathione (by mass spectrometry; residue not stated)
As for B3, the “stoichiometry N” value in “SEC” is 2.

As for B4, the “stoichiometry N” value in “AUC” amounted to 2.

B5: BMP2 (ligand, UniProt P12643 283-396, looked up)
chain: QAKHKQRKRLKSSCKRHPLYVDFSDVGWNDWIVAPPGYHAFYCHGECPFPLADHLNSTNHAIVQTLVNSVNSKIPKACCVPTELSAISMLYLDENEKVVLKNYQDMVVEGCGCR
With B5, in data set [2], the Kd (in general, the constant that tells how readily two partners part at equilibrium) amounted to 57.1 ± 7.8 nM.

B6: BMP4 (ligand, UniProt P12644 293-408, looked up)
chain: SPKHHSQRARKKNKNCRRHSLYVDFSDVGWNDWIVAPPGYQAFYCHGDCPFPLADHLNSTNHAIVQTLVNSVNSSIPKACCVPTELSAISMLYLDEYDKVVLKNYQEMVVEGCGCR
The molecule B6 had a Kd in data set [2] of 70.7 ± 2.6 nM.

B7: BMP7 (ligand, UniProt P18075 293-431, looked up)
chain: STGSKQRSQNRSKTPKNQEALRMANVAENSSSDQRQACKKHELYVSFRDLGWQDWIIAPEGYAAYYCEGECAFPLNSYMNATNHAIVQTLVHFINPETVPKPCCAPTQLNAISVLYFDDSSNVILKKYRNMVVRACGCH
Molecule B7 registered a Kd in data set [2] of 86.6 ± 3.7 nM.

The values are drawn from paper PMC3509953 (Journal of molecular biology, 2012).
